This is an account of results in US20240035031A1.

In the test the target is PYL1-MS2 (MS2 binding protein fused to PYL1 via a glycine-serine linker) (UniProt Q8VZS8). Put plainly: cell-based or functional assay.

Consider “dPspCas13b-ABI1 (catalytically inactive Prevotella sp. Cas13b fused to the abscisic acid-binding protein ABI1 via a glycine-serine linker) (from UniProt P49597 126-423)”, for which the GFP+ cells by flow cytometry (split GFP trans-splicing reporter) in the presence of 1.5 mM ABA (% of cells GFP+) was over 40.
